This test has as its target FLAG-2xStrep-PNO1 (UniProt Q9NRX1). Description: co-IP.

This is an account of results in doi:10.1101/2024.07.23.604771.

Chain of UniProt Q9NRX1 (Q9NRX1 whole entry): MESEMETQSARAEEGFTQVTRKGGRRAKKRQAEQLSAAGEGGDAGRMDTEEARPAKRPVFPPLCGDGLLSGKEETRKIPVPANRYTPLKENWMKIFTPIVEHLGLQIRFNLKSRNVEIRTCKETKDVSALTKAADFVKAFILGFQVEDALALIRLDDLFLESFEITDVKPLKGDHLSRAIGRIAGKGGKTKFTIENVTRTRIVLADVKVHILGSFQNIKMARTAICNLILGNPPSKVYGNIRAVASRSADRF

“EMG1 (from UniProt Q92979 1-244) (natural protein)” displayed a fold increase of association, lytic against latent cells of 3 fold.
